Results published in patent US20070036799A1 (MacroGenics, published 2007).
Residue numbers refer to the chain shown, from its start. Names and notes keep the numbering of the source. Where two headings read alike, the source gives them in different places. Each block holds one binder with its values, some of them ahead of it.

How the values were obtained:
[1] = molecular target: T1, soluble monomeric FcγRIIIA-linker-AVITAG (158V), biotinylated (human, UniProt P08637 17-203, biotin on the AVITAG lysine (BirA)); assay: SPR
T1 construct: range 1-203; used as monomer in ELISA and BIAcore; also called FcR3A; FcRIIIa; not shown: linker-AVITAG (15 aa AVITAG) at the C-terminus; only the coding oligonucleotide is given

[2] = molecular target: T2, FcγRIIB-Fc fusion protein (soluble dimeric FcγRIIB) (human, UniProt P31994 43-217); assay: SPR
T2 construct: extracellular domain; the suffix agl in 2bfcagl is not explained; also called FcRIIB-Fc; FcγRIIB-G2; not shown: hinge-CH2-CH3 domain of human IgG2
T2 sequence (looked up): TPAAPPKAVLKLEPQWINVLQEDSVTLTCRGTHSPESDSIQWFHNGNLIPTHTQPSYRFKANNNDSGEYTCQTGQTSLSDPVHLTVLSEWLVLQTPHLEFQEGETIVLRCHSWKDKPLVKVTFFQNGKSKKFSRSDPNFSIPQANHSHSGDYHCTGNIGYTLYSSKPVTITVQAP

[3] = molecular target: T1, soluble monomeric …; assay: ELISA
[4] = molecular target: T2, FcγRIIB-Fc fusion protein (soluble …); assay: ELISA
[5] = molecular target: T1, soluble monomeric …; assay: ELISA; remark: listed apart in the source
[6] = molecular target: T2, FcγRIIB-Fc fusion protein (soluble …); assay: ELISA; remark: listed apart in the source
[7] = molecular target: T2, FcγRIIB-Fc fusion protein (soluble …); assay: SPR; remark: listed apart in the source
[8] = molecular target: T1, soluble monomeric …; assay: ELISA; remark: listed apart in the source
[9] = molecular target: T2, FcγRIIB-Fc fusion protein (soluble …); assay: ELISA; remark: listed apart in the source
[10] = molecular target: T1, soluble monomeric …; assay: SPR; remark: listed apart in the source

T1 sequence (P08637 17-203 F176V limits assumed, form in doubt): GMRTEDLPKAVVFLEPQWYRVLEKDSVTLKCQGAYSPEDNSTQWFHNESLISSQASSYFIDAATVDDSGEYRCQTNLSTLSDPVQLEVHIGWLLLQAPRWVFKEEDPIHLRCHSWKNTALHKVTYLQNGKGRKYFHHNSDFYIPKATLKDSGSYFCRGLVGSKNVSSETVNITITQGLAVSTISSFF

B1: ch4-4-20 G316D, A378V, D399E (antibody)
chain: ASTKGPSVFPLAPSSKSTSGGTAALGCLVKDYFPEPVTVSWNSGALTSGVHTFPAVLQSSGLYSLSSVVTVPSSSLGTQTYICNVNHKPSNTKVDKKVEPKSCDKTHTCPPCPAPELLGGPSVFLFPPKPKDTLMISRTPEVTCVVVDVSHEDPEVKFNWYVDGVEVHNAKTKPREEQYNSTYRVVSVLTVLHQDWLNDKEYKCKVSNKALPAPIEKTISKAKGQPREPQVYTLPPSRDELTKNQVSLTCLVKGFYPSDIVVEWESNGQPENNYKTTPPVLESDGSFFLYSKLTVDKSRWQQGNVFSCSVMHEALHNHYTQKSLSLSPGK
Kd [1]: 72 nM | koff [1]: 0.117 s⁻¹ | Kd [2]: 46 nM | koff [2]: 0.06 s⁻¹ | fold vs wt [3]: 1.5 x increase | fold vs wt [4]: 14 x increase | fold vs wt [5]: 1.5 X | fold vs wt [6]: 14 X

B2: ch4-4-20 K317N, F423-deleted (antibody)
chain: EPKSCDKTHTCPPCPAPELLGGPSVFLFPPKPKDTLMISRTPEVTCVVVDVSHEDPEVKFNWYVDGVEVHNAKTKPREEQYNSTYRVVSVLTVLHQDWLNGNEYKCKVSNKALPAPIEKTISKAKGQPREPQVYTLPPSREEMTKNQVSLTCLVKGFYPSDIAVEWESNGQPENNYKTTPPVLDSDGSFFLYSKLTVDKSRWQQGNVSCSVMHEALHNHYTQKSLSLSPGK
fold vs wt [4]: 7 x increase

B5: ch4-4-20 K288N, A330S, P396L (antibody)
chain: EPKSCDKTHTCPPCPAPELLGGPSVFLFPPKPKDTLMISRTPEVTCVVVDVSHEDPEVKFNWYVDGVEVHNANTKPREEQYNSTYRVVSVLTVLHQDWLNGKEYKCKVSNKALPSPIEKTISKAKGQPREPQVYTLPPSREEMTKNQVSLTCLVKGFYPSDIAVEWESNGQPENNYKTTPLVLDSDGSFFLYSKLTVDKSRWQQGNVFSCSVMHEALHNHYTQKSLSLSPGK
Kd [2]: 33.4 nM | Kd [7]: 41.3 nM | ELISA, OD [8]: 1 OD | ELISA, OD [9]: 1.2 OD

B7: ch4-4-20 F243I, V379L, G420V (antibody)
chain: B1 chain with F126I, D199G, V261A, V262L, E282D, G303V
Kd [2]: 93.4 nM | koff [2]: 0.101 s⁻¹

B8: ch4-4-20 E293V, Q295E, A327T (antibody)
chain: B5 chain with N73K, E78V, Q80E, A112T, S115A, L181P
Kd [2]: 86 nM

Next, values leading:

fold vs wt [4]: 4 x increase
B3: ch4-4-20 T215P, K274N, A287G, K334N, L365V, P396L (antibody)
chain: PEPKSCDKTHTCPPCPAPELLGGPSVFLFPPKPKDTLMISRTPEVTCVVVDVSHEDPEVNFNWYVDGVEVHNGKTKPREEQYNSTYRVVSVLTVLHQDWLNGKEYKCKVSNKALPAPIENTISKAKGQPREPQVYTLPPSRDELTKNQVSVTCLVKGFYPSDIAVEWESNGQPENNYKTTPLVLDSDGSFFLYSKLTVDKSRWQQGNVFSCSVMHEALHNHYTQKSLSLSPGK

fold vs wt [3]: 0.5 x increase
B4: ch4-4-20 V348M, K334N, F275I, Y202M, K147T (antibody)
chain: B1 chain with K30T, V85M, F158I, D199G, K217N, V231M, V261A, E282D

Kd [1]: 55.2 nM | koff [1]: 0.128 s⁻¹ | Kd [2]: 72 nM | koff [2]: 0.11 s⁻¹ | fold vs wt [3]: 1.5 x increase | fold vs wt [5]: 1.5 X
B6: ch4-4-20 K334E, T359N, T366S (antibody)
chain: B1 chain with D199G, K217E, T242N, T249S, V261A, E282D

Kd [1]: 125 nM | Kd [2]: 55.7 nM | fold vs wt [5]: 3.5 X
B9: ch4-4-20 Y319F, P352L, P396L (antibody)
chain: B5 chain with N73K, Y104F, S115A, P137L

Koff WT/Koff MUT [10]: 10.1 ratio
B10: ch4D5 MGFc0088A (F243L, R292P, Y300L, P396L) (antibody)
chain: B1 chain with F126L, R175P, Y183L, D199G, V261A, P279L, E282D

Koff WT/Koff MUT [10]: 2.56 ratio
B11: ch4D5 MGFc0074 (F243L, R292P, V305I) (antibody)
chain: B1 chain with F126L, R175P, V188I, D199G, V261A, E282D
